Measured values taken from patent CN101309933A (MEDIMMUNE LLC, dated 2008).

Legend:
[1] = biological target: T1, 小鼠EphA2 (expressed on cells) (mouse, UniProt Q03145 26-977); assay: flow cytometry on cell lines, 1 μg antibody, PE goat anti-human IgG
T1 construct: whole, on cells; also called mouse EphA2; EphA2 on CT26, 4T1

[2] = biological target: T2, 人EphA2 (expressed on cells) (human, UniProt P29317 24-976); assay: as above
T2 construct: whole, on cells; also called human EphA2; EphA2 on PC3, HUVEC and other human cell lines
T2 sequence (P29317 24-976): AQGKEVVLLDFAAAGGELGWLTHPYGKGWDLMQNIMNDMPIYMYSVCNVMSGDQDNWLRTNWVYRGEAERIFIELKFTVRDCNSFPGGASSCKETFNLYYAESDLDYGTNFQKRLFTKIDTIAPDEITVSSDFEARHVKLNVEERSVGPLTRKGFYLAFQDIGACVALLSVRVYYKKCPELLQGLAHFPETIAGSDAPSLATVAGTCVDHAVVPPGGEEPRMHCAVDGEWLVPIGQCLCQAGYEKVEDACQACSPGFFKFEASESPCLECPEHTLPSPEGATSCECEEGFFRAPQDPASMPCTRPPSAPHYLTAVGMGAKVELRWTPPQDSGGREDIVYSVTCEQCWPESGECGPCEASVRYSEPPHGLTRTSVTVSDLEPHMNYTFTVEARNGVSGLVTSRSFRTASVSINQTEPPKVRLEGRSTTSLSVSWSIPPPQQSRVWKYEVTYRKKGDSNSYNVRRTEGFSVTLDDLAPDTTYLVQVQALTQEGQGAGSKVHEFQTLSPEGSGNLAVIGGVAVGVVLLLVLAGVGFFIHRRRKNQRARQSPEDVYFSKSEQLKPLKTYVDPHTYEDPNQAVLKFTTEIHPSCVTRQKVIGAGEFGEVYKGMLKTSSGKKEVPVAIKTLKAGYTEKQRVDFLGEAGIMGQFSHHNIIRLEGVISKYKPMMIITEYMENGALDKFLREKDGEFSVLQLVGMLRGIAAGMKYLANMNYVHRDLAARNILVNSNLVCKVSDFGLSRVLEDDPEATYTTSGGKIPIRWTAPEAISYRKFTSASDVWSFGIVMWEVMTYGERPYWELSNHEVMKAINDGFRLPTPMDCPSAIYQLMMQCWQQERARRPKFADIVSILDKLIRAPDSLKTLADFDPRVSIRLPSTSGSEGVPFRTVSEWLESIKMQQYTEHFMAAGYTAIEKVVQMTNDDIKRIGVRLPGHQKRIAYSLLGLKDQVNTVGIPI

T1 sequence (Q03145 26-977): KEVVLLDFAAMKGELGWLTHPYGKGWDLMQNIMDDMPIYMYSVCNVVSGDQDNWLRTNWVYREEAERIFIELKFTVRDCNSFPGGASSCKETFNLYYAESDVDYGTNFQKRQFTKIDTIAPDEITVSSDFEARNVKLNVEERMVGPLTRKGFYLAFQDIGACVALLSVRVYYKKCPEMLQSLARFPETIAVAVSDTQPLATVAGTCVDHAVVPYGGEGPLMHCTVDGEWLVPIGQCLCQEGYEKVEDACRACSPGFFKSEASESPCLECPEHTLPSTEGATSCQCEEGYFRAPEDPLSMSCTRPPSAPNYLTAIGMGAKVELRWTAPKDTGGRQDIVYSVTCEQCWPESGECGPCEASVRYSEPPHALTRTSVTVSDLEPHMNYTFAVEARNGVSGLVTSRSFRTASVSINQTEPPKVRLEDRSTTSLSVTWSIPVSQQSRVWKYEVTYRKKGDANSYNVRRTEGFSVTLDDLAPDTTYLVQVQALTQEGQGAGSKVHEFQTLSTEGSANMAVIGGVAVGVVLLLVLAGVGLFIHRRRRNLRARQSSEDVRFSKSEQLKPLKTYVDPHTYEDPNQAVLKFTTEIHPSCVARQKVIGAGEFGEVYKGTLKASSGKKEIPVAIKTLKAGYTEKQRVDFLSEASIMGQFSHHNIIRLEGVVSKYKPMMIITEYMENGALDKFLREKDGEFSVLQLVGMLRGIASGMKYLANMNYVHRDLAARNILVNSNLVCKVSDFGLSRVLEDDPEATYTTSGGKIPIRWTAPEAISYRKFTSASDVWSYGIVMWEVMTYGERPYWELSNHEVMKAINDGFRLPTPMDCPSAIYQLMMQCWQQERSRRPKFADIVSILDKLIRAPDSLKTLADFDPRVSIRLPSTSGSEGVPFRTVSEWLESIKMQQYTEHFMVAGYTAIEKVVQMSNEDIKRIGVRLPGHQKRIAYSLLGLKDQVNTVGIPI

B1: 抗-EphA2抗体1H3 (antibody, V domains shown)
VH: EVQLLESGGGLVQPGGSLRLSCAASGFTFSMYAMRWVRQAPGKGLEWVSVIGPSGGWTPYADSVKGRFTISRDNSKNTLYLQMNSLRAEDTAVYYCARDRGIYGMDVWGQGTTVTVSS
VL: DIQMTQSPSFLSASVGDRVTITCRASQGISSYLAWYQQKPGKAPKLLIYAASTLQSGVPSRFSGSGSGTEFTLTISSLQPEDFATYYCLELNNYPFTFGLGTKVHIK
B1: binds [1]; binds [2].

B2: 抗-EphA2抗体3F2 (antibody, V domains shown)
VH: EVQLVESGGGVVRPGGSLRLSCAASGFTVSDYSMNWVRQAPGKGLEWIGFIRNKANAYTTEYSASVKGRFTISRDDSKNTLYLQMNSLKTEDTAVYYCTTYPRYHAMDSWGQGTMVTVSS
VL: AIQLTQSPSSLSASVGDRVTITCRASQSISNNLHWYLQKPGQSPQLLIYYGFQSISGVPSRFSGSGSGTDFTLTISSLQPEDFATYYCQQANSWPLTFGGGTKLEIK
B2: binds [1]; binds [2].
